Each block holds one binder with its values, some of them ahead of it. No end group written: not given here. *: point of attachment. Biotin = O=C1N[C@H]2[C@H](CS[C@H]2CCCCC(=O)*)N1
How the values were obtained:
ET140-p37 [1] = molecular target: T1, ET140-p37 (human); assay: peptide ELISA, biotin peptide on streptavidin plate
T1 construct: also called peptide 37
T1 peptide: Biotin-SGSGQRYCNASVTNSVKGT
Procedure: (§1) The peptides were coated onto Streptavidin plates at 2 ug/mL in PBST (PBS+0.05% Tween-20). After washing and blocking with 3% BSA. […] “mIgG1” used in all Examples represents that the variable region is fully human and the Fc part is mouse IgG1. Then HRP anti-mouse IgG detection antibody was added to each well. Finally, the color was developed using TMB substrate. A450 was recorded for data analysis.

ET140-p35 = molecular target: T2, ET140-p35 (human, cysteine pairing not given here); assay: as above
T2 construct: also called peptide 35
T2 peptide: Biotin-SGSGTCQRYCNASVTNSVK
Procedure: as §1

ET140-p12 = molecular target: T3, ET140-p12 (human, cysteine pairing not given here); assay: as above
T3 construct: also called peptide 12
T3 peptide: Biotin-SGSGYFDSLLHACIPCQLR
Procedure: as §1

ET140-p39 = molecular target: T4, ET140-p39 (human); assay: as above
T4 construct: also called peptide 39
T4 peptide: Biotin-SGSGYCNASVTNSVKGTNA
Procedure: as §1

ET140-p11 = molecular target: T5, ET140-p11 (human, cysteine pairing not given here); assay: as above
T5 construct: also called peptide 11; ET140-pll
T5 peptide: Biotin-SGSGEYFDSLLHACIPCQL
Procedure: as §1

ET140-p21 = molecular target: T6, ET140-p21 (human, cysteine pairing not given here); assay: as above
T6 construct: also called peptide 21
T6 peptide: Biotin-SGSGIPCQLRCSSNTPPLT
Procedure: as §1

ET140-p31 [2] = molecular target: T7, ET140-p31 (human, cysteine pairing not given here); assay: as above
T7 construct: also called peptide 31
T7 peptide: Biotin-SGSGTPPLTCQRYCNASVT
Procedure: as §1

ET140-p29 = molecular target: T8, ET140-p29 (human, cysteine pairing not given here); assay: as above
T8 construct: also called peptide 29
T8 peptide: Biotin-SGSGSNTPPLTCQRYCNAS
Procedure: as §1

ET140-p9 = molecular target: T9, ET140-p9 (human, cysteine pairing not given here); assay: as above
T9 construct: also called peptide 9
T9 peptide: Biotin-SGSGQNEYFDSLLHACIPC
Procedure: as §1

ET140-p13 = molecular target: T10, ET140-p13 (human, cysteine pairing not given here); assay: as above
T10 construct: also called peptide 13
T10 peptide: Biotin-SGSGFDSLLHACIPCQLRC
Procedure: as §1

ET140-p18 = molecular target: T11, ET140-p18 (human, cysteine pairing not given here); assay: as above
T11 construct: also called peptide 18
T11 peptide: Biotin-SGSGHACIPCQLRCSSNTP
Procedure: as §1

ET140-p16 = molecular target: T12, ET140-p16 (human, cysteine pairing not given here); assay: as above
T12 construct: also called peptide 16
T12 peptide: Biotin-SGSGLLHACIPCQLRCSSN
Procedure: as §1

ET140-p14 = molecular target: T13, ET140-p14 (human, cysteine pairing not given here); assay: as above
T13 construct: also called peptide 14
T13 peptide: Biotin-SGSGDSLLHACIPCQLRCS
Procedure: as §1

ET140-p1 = molecular target: T14, ET140-p1 (human); assay: as above
T14 construct: also called peptide 1; ET140-pl
T14 peptide: Biotin-SGSGLQMAGQCSQNEYFDS
Procedure: as §1

ET140-p23 = molecular target: T15, ET140-p23 (human, cysteine pairing not given here); assay: as above
T15 construct: also called peptide 23
T15 peptide: Biotin-SGSGCQLRCSSNTPPLTCQ
Procedure: as §1

ET140-p22 = molecular target: T16, ET140-p22 (human, cysteine pairing not given here); assay: as above
T16 construct: also called peptide 22
T16 peptide: Biotin-SGSGPCQLRCSSNTPPLTC
Procedure: as §1

ET140-p38 = molecular target: T17, ET140-p38 (human); assay: as above
T17 construct: also called peptide 38
T17 peptide: Biotin-SGSGRYCNASVTNSVKGTN
Procedure: as §1

ET140-p33 = molecular target: T18, ET140-p33 (human, cysteine pairing not given here); assay: as above
T18 construct: also called peptide 33
T18 peptide: Biotin-SGSGPLTCQRYCNASVTNS
Procedure: as §1

ET140-p3 = molecular target: T19, ET140-p3 (human); assay: as above
T19 construct: also called peptide 3
T19 peptide: Biotin-SGSGMAGQCSQNEYFDSLL
Procedure: as §1

ET140-p28 [3] = molecular target: T20, ET140-p28 (human, cysteine pairing not given here); assay: as above
T20 construct: also called peptide 28
T20 peptide: Biotin-SGSGSSNTPPLTCQRYCNA
Procedure: as §1

ET140-p26 [4] = molecular target: T21, ET140-p26 (human, cysteine pairing not given here); assay: as above
T21 construct: also called peptide 26
T21 peptide: Biotin-SGSGRCSSNTPPLTCQRYC
Procedure: as §1

ET140-p6 = molecular target: T22, ET140-p6 (human, cysteine pairing not given here); assay: as above
T22 construct: also called peptide 6
T22 peptide: Biotin-SGSGQCSQNEYFDSLLHAC
Procedure: as §1

ET140-p20 = molecular target: T23, ET140-p20 (human, cysteine pairing not given here); assay: as above
T23 construct: also called peptide 20
T23 peptide: Biotin-SGSGCIPCQLRCSSNTPPL
Procedure: as §1

ET140-p25 = molecular target: T24, ET140-p25 (human, cysteine pairing not given here); assay: peptide ELISA on streptavidin plate, antibody 1 ug/mL
T24 construct: also called peptide 25
T24 peptide: Biotin-SGSGLRCSSNTPPLTCQRY
Procedure: as §1

ET140-p26 [5] = molecular target: T21, ET140-p26; assay: as above
Procedure: as §1

ET140-p37 [6] = molecular target: T1, ET140-p37; assay: peptide ELISA on streptavidin plate
Procedure: as §1

ET140-p19 = molecular target: T25, ET140-p19 (human, cysteine pairing not given here); assay: peptide ELISA on streptavidin plate
T25 construct: also called peptide 19
T25 peptide: Biotin-SGSGACIPCQLRCSSNTPP
Procedure: as §1

ET140-p31 [7] = molecular target: T7, ET140-p31; assay: peptide ELISA on streptavidin plate
Procedure: as §1

ET140-p4 = molecular target: T26, ET140-p4 (human); assay: peptide ELISA on streptavidin plate
T26 construct: also called peptide 4
T26 peptide: Biotin-SGSGAGQCSQNEYFDSLLH
Procedure: as §1

ET140-p34 = molecular target: T27, ET140-p34 (human, cysteine pairing not given here); assay: peptide ELISA on streptavidin plate
T27 construct: also called peptide 34
T27 peptide: Biotin-SGSGLTCQRYCNASVTNSV
Procedure: as §1

ET140-p2 = molecular target: T28, ET140-p2 (human); assay: peptide ELISA on streptavidin plate
T28 construct: also called peptide 2
T28 peptide: Biotin-SGSGQMAGQCSQNEYFDSL
Procedure: as §1

ET140-p28 [8] = molecular target: T20, ET140-p28; assay: peptide ELISA on streptavidin plate
Procedure: as §1

binding result (ET140-p37 [1]): no binding (tested: 1 ug/mL) | binding result (ET140-p35): no binding (tested: 1 ug/mL) | binding result (ET140-p12): no binding (tested: 1 ug/mL) | binding result (ET140-p39): no binding (tested: 1 ug/mL) | binding result (ET140-p11): no binding (tested: 1 ug/mL) | binding result (ET140-p21): no binding (tested: 1 ug/mL) | binding result (ET140-p31 [2]): no binding (tested: 1 ug/mL) | binding result (ET140-p29): no binding (tested: 1 ug/mL) | binding result (ET140-p9): no binding (tested: 1 ug/mL) | binding result (ET140-p13): no binding (tested: 1 ug/mL) | binding result (ET140-p18): no binding (tested: 1 ug/mL) | binding result (ET140-p16): no binding (tested: 1 ug/mL) | binding result (ET140-p14): no binding (tested: 1 ug/mL) | binding result (ET140-p1): no binding (tested: 1 ug/mL) | binding result (ET140-p23): no binding (tested: 1 ug/mL) | binding result (ET140-p22): no binding (tested: 1 ug/mL) | binding result (ET140-p38): no binding (tested: 1 ug/mL) | binding result (ET140-p33): no binding (tested: 1 ug/mL) | binding result (ET140-p3): no binding (tested: 1 ug/mL) | binding result (ET140-p28 [3]): no binding (tested: 1 ug/mL) | binding result (ET140-p26 [4]): no binding (tested: 1 ug/mL) | binding result (ET140-p6): no binding (tested: 1 ug/mL) | binding result (ET140-p20): no binding (tested: 1 ug/mL) | A450 (ET140-p25): 0.494 | A450 (ET140-p26 [5]): 0.2
B1: ET140-204 mIgG1 (antibody, V domains shown)
VH: EVQLVQSGAEMKKPGASLKLSCKASGYTFIDYYVYWMRQAPGQGLESMGWINPNSGGTNYAQKFQGRVTMTRDTSISTAYMELSRLRSDDTAMYYCARSQRDGYMDYWGQGTLVTVSS
VL: QSALTQPASVSASPGQSIAISCTGTSSDVGWYQQHPGKAPKLMIYEDSKRPSGVSNRFSGSKSGNTASLTISGLQAEDEADYYCSSNTRSSTLVFGGGTKLTVLG
notes: also called ET140-54 mIgG1; ET140-54

binding result (ET140-p37 [6]): no binding (tested: 1 ug/mL) | binding result (ET140-p19): no binding (tested: 1 ug/mL) | binding result (ET140-p31 [7]): no binding (tested: 1 ug/mL) | binding result (ET140-p4): no binding (tested: 1 ug/mL) | binding result (ET140-p34): no binding (tested: 1 ug/mL) | binding result (ET140-p2): no binding (tested: 1 ug/mL) | binding result (ET140-p28 [8]): no binding (tested: 1 ug/mL)
B2: ET140-153 mIgG1 (antibody, V domains shown)
VH: QVQLVQSGAEVKKPGSSVKVSCKASGGTFSSYAISWVRQAPGQGLEWMGRIIPILGIANYAQKFQGRVTITADKSTSTAYMELSSLRSEDTAVYYCARGGYYSHDMWSEDWGQGTLVTVSS
VL: LPVLTQPPSASGTPGQRVTISCSGRSSNIGSNSVNWYRQLPGAAPKLLIYSNNQRPPGVPVRFSGSKSGTSASLAISGLQSEDEATYYCATWDDNLNVHYVFGTGTKVTVLG
notes: also called ET140-3 mIgG1; ET140-3

binding result (ET140-p37 [1]): no binding (tested: 1 ug/mL) | binding result (ET140-p35): no binding (tested: 1 ug/mL) | binding result (ET140-p12): no binding (tested: 1 ug/mL) | binding result (ET140-p39): no binding (tested: 1 ug/mL) | binding result (ET140-p11): no binding (tested: 1 ug/mL) | binding result (ET140-p21): no binding (tested: 1 ug/mL) | binding result (ET140-p31 [2]): no binding (tested: 1 ug/mL) | binding result (ET140-p29): no binding (tested: 1 ug/mL) | binding result (ET140-p9): no binding (tested: 1 ug/mL) | binding result (ET140-p13): no binding (tested: 1 ug/mL) | binding result (ET140-p18): no binding (tested: 1 ug/mL) | binding result (ET140-p16): no binding (tested: 1 ug/mL) | binding result (ET140-p14): no binding (tested: 1 ug/mL) | binding result (ET140-p1): no binding (tested: 1 ug/mL) | binding result (ET140-p23): no binding (tested: 1 ug/mL) | binding result (ET140-p22): no binding (tested: 1 ug/mL) | binding result (ET140-p38): no binding (tested: 1 ug/mL) | binding result (ET140-p33): no binding (tested: 1 ug/mL) | binding result (ET140-p3): no binding (tested: 1 ug/mL) | binding result (ET140-p28 [3]): no binding (tested: 1 ug/mL) | binding result (ET140-p26 [4]): no binding (tested: 1 ug/mL) | binding result (ET140-p6): no binding (tested: 1 ug/mL) | binding result (ET140-p20): no binding (tested: 1 ug/mL) | A450 (ET140-p25): 0.537 | A450 (ET140-p26 [5]): 0.212
B3: ET140-174 mIgG1 (antibody, V domains shown)
VH: EVQLVQSGAEVKKPGESLKISCKGSGYSFTSYWIGWVRQMPGKGLEWMGIIYPGDSDTRYSPSFQGHVTISADKSISTAYLQWSSLKASDTAMYYCARYSGSFDNWGQGTLVTVSS
VL: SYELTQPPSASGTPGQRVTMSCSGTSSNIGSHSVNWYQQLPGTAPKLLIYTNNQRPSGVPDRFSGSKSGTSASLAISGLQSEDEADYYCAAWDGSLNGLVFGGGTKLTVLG
notes: also called ET140-24 mIgG1; ET140-24

— patent US20210346432A1 (Memorial Sloan Kettering, published 2021)
